Residue numbers refer to the chain shown, from its start.
B1: h528Fv WT (other)
VH: QVQLVQSGAEVKKPGASVKVSCKASGYTFTSYWMHWVRQAPGQGLEWMGNIYPGSGGTNYAEKFKNRVTMTRDTSISTAYMELSRLRSDDTAVYYCARSGGPYFFDYWGQGTLVTVSS
VL: DIVMTQSPLSLPVTPGEPASISCRSSQNIVHNNGITYLEWYLQKPGQSPQLLIYKVSDRFSGVPDRFSGSGSGTDFTLKISRVEAEDVGVYYCFQGSHIPPTFGQGTKVEIKR
notes: Fv fragment: VH and VL co-expressed in E. coli BL21; Purified by metal chelate chromatography; the tag is not described; also called wild type humanized Fv
B2: h528Fv 5.0.0 (other)
VH: B1 VH with Y52W
VL: B1 VL
B3: h528Fv 5.73.0 (other)
VH: B1 VH with Y52W, S55N, K63Q, N66Q
VL: B1 VL
B4: h528Fv 5.11.T (other)
VH: B1 VH with Y52W, S55T, K65Q, N66Q, A97T
VL: B1 VL
B5: h528Fv 5.98.0 (other)
VH: B1 VH with Y52W, S55Q, N66S
VL: B1 VL
B6: h528Fv 5.12.0 (other)
VH: B1 VH with Y52W, S55K, K65Q, N66K
VL: B1 VL

Key:
[1] = biological target: T1, soluble EGFR (human epithelial cell growth factor receptor 1, Her1) (human, UniProt P00533 25-645, limits assumed); experiment: ITC, 50 uM Fv titrated into 5 uM soluble EGFR
T1 construct: The metal chelate purification implies a His tag, but none is described; also called target antigen
Procedure: (§1) The resulting mutants were then subjected to thermodynamic analysis by means of Isothermal Titration calorimeter. […] Binding enthalpy (ΔH) and binding coefficient (Ka) were calculated from the change of calorie during the above titration. Free Energy Change (ΔG) and Binding Entropy Change (ΔS) were then calculated from the above values.

[2] = biological target: T1, soluble EGFR (human epithelial cell …); experiment: ITC; lower end tied to 5.0.0 by Table 4 (14.9 against 1.9)
Procedure: as §1

| Binder | Ka [1] [M⁻¹] | TΔS [1] [kJ/mol] | ΔG [1] [kJ/mol] | ΔH [1] [kJ/mol] | fold increase of Ka over h528Fv WT [2] [fold] |
| --- | --- | --- | --- | --- | --- |
| B1 | 1.9e+07 | -19.5 | -41.5 | -61.1 | – |
| B2 | 1.49e+08 | -41.2 | -46.7 | -87.9 | 8 to 33 |
| B3 | 4.95e+08 | -21.5 | -49.8 | -71.3 | – |
| B4 | 5.24e+08 | -33.8 | -49.7 | -83.5 | – |
| B5 | 5.05e+08 | -26.9 | -49.9 | -76.8 | – |
| B6 | 4.42e+08 | -20.4 | -49.5 | -69.9 | – |

From patent publication US20130131320A1 (TOHOKU UNIVERSITY, published 2013)
